# According to patent US20130109581A1, “POSITIVELY CHARGED SPECIES AS BINDING REAGENTS IN THE SEPARATION OF PROTEIN AGGREGATES FROM MONOMERS” (priority 2009, published 2013):
# Assays:
# Abeta 1-40 monomer = Abeta 1-40 monomer (UniProt P05067); assay: MPA bead capture, Abeta 1-40 read-out of the CSF sample (noise)
# Abeta 1-42 globulomer [1] = target: Abeta 1-42 globulomer (UniProt P05067); assay: 42 (globulomer) RLU over 40 (Abeta 1-40 monomer) RLU
# Abeta 1-42 globulomer [2] = target: Abeta 1-42 globulomer (UniProt P05067); assay: MPA bead capture, CSF + 1 ng/mL globulomer, Abeta immunoassay
# [3] = target: Abeta (1-42) aggregates from Alzheimer's Disease Brain Homogenate (human) (UniProt P05067); assay: MPA, AD brain homogenate in CSF, Abeta(1-42) ELISA
# [4] = target: Abeta (1-42) aggregates from Alzheimer's Disease Brain Homogenate (human) (UniProt P05067); assay: MPA, AD brain homogenate in plasma, Abeta(1-42) ELISA
average RLU (40) (Abeta 1-40 monomer),42:40 ratio (Abeta 1-42 globulomer [1]),average RLU (42) (Abeta 1-42 globulomer [2]),Substance,limit of detection [3],limit of detection [4]
198 RLU,,,link-FKFKKK (peptide),,
279 RLU,,,link-KKKFKF (peptide),,
254 RLU,6.3,1600 RLU,link-kkkfkf (peptide),,
,,,peptoid +++++++,1.6 mL/assay,2.5 mL/assay
